Laboratory results: the nanobody polyreactivity screen of Harvey et al. (2022)

Assay: yeast display, Sf9 membrane polyspecificity reagent, FACS + sequencing; frameworks hold sequencing errors
How it was run: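 Sorting gates, low and high (top ~1%), were placed on anti-HA fluorescence to track expression and on streptavidin fluorescence to track reagent binding. A clone's polyreactivity label is taken from the gate it came out of. The reagent was 10% biotinylated, detergent-solubilized Sf9 membrane, applied for 1 hour at 4 °C to galactose-induced yeast display cells.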

Sequence | polyreactivity (PSR sort gate)
QVQLVESGGGLVQAGGSLRLSCAASGFTFYGYAMGWYRQAPGKERELVAAISSSGTSTYYADSVKGRFTISRDNAKNTVYLQMNSLKPEDTAVYYCAALVRGAYGYGYWGQGTQVTVSS | high polyreactivity
QVQLVESGGGLVQAGGSLRLSCAASGFTFYGYAMGWYRQAPGKERELVASISWSGGTTYYADSVKGRFTISRDNAKNTVYLQMNSLKPEDTAVYYCNAVRYRYGVFPYYYWGQGTQVTVSS | high polyreactivity
QVQLVESGGGLVQAGGSLRLSCAASGFTFYGYVMGWYRQAPGKERDLVAVISRSGDRTYYADSVKGRFTISRDNAKNTVYFQMNSLKPEDTAVYYCAARVYLLGWWTGNGYWGQGTQVTVSS | high polyreactivity
QVQLVESGGGLVQAGGSLRLSCAASGFTFYHYAMGWYRQAPGKERELVATISKRGGSTYYADSVKGRFTISRDNAKNTVYLQMNSLKPEDTAVYYCAAKIYWSSLKMDYWGQGTQVTVSS | high polyreactivity
QVQLVESGGGLVQAGGSLRLSCAASGFTFYINALGWYRLAHGKERELVAAITWRSVRTYYADSVKGRFTISRDNAKNTVYLQMNSRKPEDTEVYYCAAASAYRHGEYDYWGQGTQLTVSS | low polyreactivity
QVQLVESGGGLVQAGGSLRLSCAASGFTFYIYAMGWYRQAPGKERELVAAISSGGGRTYYADSVKGRFTISRDNAKNTVYLQMNSLKPEDTAVYYCAARGRAFSYNNYGSDYWGQGTQVTVSS | high polyreactivity
QVQLVESGGGLVQAGGSLRLSCAASGFTFYIYVMGWYRQARGKERELVAAITWSGGRTYYADSVKGRFTISRDYAKNTVYLQMNSLKPEDTAVYYCAASYPGLSYHKYEYWGQGTQVTVSS | high polyreactivity
QVQLVESGGGLVQAGGSLRLSCAASGFTFYKNTMGWYRQAHGTERELVAAISSSGSSTYYADSVKGRFTISRDNAKNTVYLQMNSLKPEDTAVYYCAAGRFAYHDDYWGQGTQVTVSS | high polyreactivity
QVQLVESGGGLVQAGGSLRLSCAASGFTFYKNTMGWYRQAPGKERELVAAISSSGSSTYYADSVKGRFTISRDKAKNTVYLQMNSLKPEDTAVYYCAAGRFAYHDDYWGQGTQVTVSS | high polyreactivity
QVQLVESGGGLVQAGGSLRLSCAASGFTFYKYVMGWYRQAPGKERELVAAITTSGGSTYYADSVKGRFTISRDNAKNTVYLQMNSLKPEDTAVYYCNALARWWAYYDYGYWGQGTQVTVSS | low polyreactivity
QVQLVESGGGLVQAGGSLRLSCAASGFTFYLNVMGWYRQAPGKERELVARISRSGGTTYYADSVKGRFTISRDNAKNTVYLQMNSLKPEDTAVYYCAARRYGVPPTYDYWGQGTQVTVSS | high polyreactivity
QVQLVESGGGLVQAGGSLRLSCAASGFTFYLYAMGWYRQAPGKERELVAAITWSGGRTYYADSVKGRFTISRDNAKNTVYLQMNSLKPEDTAVYYCAAVVRKQLSAPSDYWGQGTQVTVSS | high polyreactivity
QVQLVESGGGLVQAGGSLRLSCAASGFTFYNNAMGWYRQAPGKERELVAVITSNGGRTYYADSVKGRFTISRDNAKITVYLQMNSLKPEDTAVYYCAADYWGLGTQVTVSS | low polyreactivity
QVQLVESGGGLVQAGGSLRLSCAASGFTFYNYAMGWYRQAPGKERELVAAISRSGRTYYADSVKGRFTISRDNAKNTVYLQMNSLKPEDTAVYYCAAGHGGDPGSGYWGQGTQVTVSS | high polyreactivity
QVQLVESGGGLVQAGGSLRLSCAASGFTFYNYAMGWYRQAPGKERELVAAITSSGGRTYYADSVKGRFTISRDNAKNTVYLQMNSLKPEDTAVYYCAATGFYLRGEYYYCGQGTQVTVSS | low polyreactivity
QVQLVESGGGLVQAGGSLRLSCAASGFTFYPYALGRYRQAPRKEREFVAAISNGDSTHYADSVKGRFTISRDNAKNTVYLQMNSLKPEDTAVYYCNAYTRYPFYFVTSKYDYWGQGTQVTVSS | low polyreactivity

Sequence | polyreactivity (PSR sort gate)
QVQLVESGGGLVQAGGSLRLSCAASGFTFYQYAMGWYRQAPGKEREFVAAISSSGSSTYYADSVKGRFTISRDNAKNTVYLQMNSLKPEDTEVYYCNAYFRNWRYSPGGYWGQGTQVTVSS | high polyreactivity
QVQLVESGGGLVQAGGSLRLSCAASGFTFYRNAMGWYRQAPGKERELVAAINYSGGSTYFADSVKGRFTISRDNAKNTVYLQMNSLKPEVTAVYYCAVPYNYYRYHYSGYDYWGQGTQVTVSS | high polyreactivity
QVQLVESGGGLVQAGGSLRLSCAASGFTFYRNAMGWYRQAPGKERELVAAISWRGSSTYYADSVKGRFTISRDNAKNTVYLQMNSLKPEDTAVYYCATEYPYWYYYRMDYWGQGTQVTVSS | high polyreactivity
QVQLVESGGGLVQAGGSLRLSCAASGFTFYRNAMGWYRQAPGKERELVASISRSGGSTYYADSVKGRFTNSRDNAKNTVYLQMNSLKPEDTAVYYCAADLWWIYPHKYYYWGQGTQVTVSS | high polyreactivity
QVQLVESGGGLVQAGGSLRLSCAASGFTFYRYAMGWYRQAPGKEREFVAVINIRGSTTYYADSVKGRFTISRDNAKNTVYLQMNSLKPEDTAVYYCARRYRGPYYSLPRRKEFDYWGQGTQVTVSS | high polyreactivity
QVQLVESGGGLVQAGGSLRLSCAASGFTFYRYAMGWYRQAPGKERELVAAISSGGRTTYADSVKGRFTISRDNAKNTVYLQMNSLKPEDTAVYYCVFVYVYDYYYWGQGTQVTVSS | high polyreactivity
QVQLVESGGGLVQAGGSLRLSCAASGFTFYRYAMGWYRQAPGKERELVAAISTSGGSTYYADSVKGRFTISRDNAKNTVYLQMNSLKPEDTAVYYCAAELLVYYWGYYYELLDYWGQGTQVSVSS | high polyreactivity
QVQLVESGGGLVQAGGSLRLSCAASGFTFYRYAMGWYRQAPGKERELVATISASGGSTYYADSVKGRFTISRDNAKNTVYLQMNSLKPEDTAVYYCAVRYKSWYGFNYWGQGTQVTVSS | high polyreactivity
QVQLVESGGGLVQAGGSLRLSCAASGFTFYRYAMGWYRQAPGKERELVAVISSSGGRTYYADSVKGRFTISRDNAKNTVYLQMNSLKPEDTAVYYCAAVGAVRREDYWGQGTQVTVSS | high polyreactivity
QVQLVESGGGLVQAGGSLRLSCAASGFTFYRYAMGWYRQAPGKERQLVAAISRRGGSTDYADSVKGRFTISRDNAKNTVYLQMNRLKPEDTAVYYCAASYSRGVGKLGYWGQGTQVTVSS | high polyreactivity
QVQLVESGGGLVQAGGSLRLSCAASGFTFYRYTMGWYRQAPGKERELVAAISSGDSTYYADSVKGRFTISRDNAKNTVYLQMNSLKPEDTAVYYCAARQYSRGAIVYYWGQGTQVTVSS | high polyreactivity
QVQLVESGGGLVQAGGSLRLSCAASGFTFYRYTMGWYRQAPGKERELVAVISSGGRTNYADSVKGRFTISRDNAKNTVYLQMNSLKPEDTAVYYCATRYPGYRDGYDYWGQGTQVSVSS | high polyreactivity
QVQLVESGGGLVQAGGSLRLSCAASGFTFYSNAMGWYRQAPGKERELVAAISGSGGRTYYADSVKGRFTISRDNAKNTVYLQMNSLKPEDTAVYYCAAKFTTGYYYGVPRDYWGQGTQVTVSS | high polyreactivity
QVQLVESGGGLVQAGGSLRLSCAASGFTFYSNAMGWYRQAPGKERELVATIRYRGGSTYADSVKGRFTISRDNAKNTVYLQMNSLKPEDTAVYYCAARKYRSFRQRTGDYWGQGTQVTVSS | high polyreactivity
QVQLVESGGGLVQAGGSLRLSCAASGFTFYSYALGWYIQAPGKERELVAAISRGGSTTYADSVKGRFTISRDNAKNTVYLQMNSLKPEDTAVYYCAARYRYRYTPYRYDYWGQGTQVTVSS | high polyreactivity
QVQLVESGGGLVQAGGSLRLSCAASGFTFYSYAMGWYRQAPGKEREFVAAISGSGTITFYADSVKGRFTISRDNAKNTVYLQMNSLKPEDTAVYYCNADKYYRWSSPRYDYWGQGTQVTVSS | low polyreactivity
